Data taken from patent US10501748B2, “Methods and compositions for integration of an exogenous sequence within the genome of plants” (Dow AgroSciences LLC, priority 2013, dated 2019).

Tests used:
[1] = tested on: endogenous AHAS locus in scutella of cv. Bobwhite MPB26RH; test: biolistics-mediated transformation for first sequential transgene stack with IMAZAMOX or BASTA selection; format: cell-based, Triticum aestivum; details: donor with pDAB109350 at 5:1
Experimental: A total of 55,468 scutella of immature zygotic embryos from the donor wheat line cv. Bobwhite MPB26RH were prepared for biolistics-mediated DNA delivery, as described previously. DNA-coated gold particles were prepared with the formulations as described above. For transfections performed using the linear double-stranded donor DNA derived from “QA_pDAS000434” or pDAS000433, the donor DNA was mixed at a 5:1 molar ratio with plasmid DNA for pDAB109350 (encoding ZFNs 29732 and 29730). Transfections performed using pDAS000143 were performed using gold particles that were coated only with plasmid DNA for pDAS000143.
Biolistic-mediated transfections were performed as described previously. Following bombardment, the transfected scutella were incubated at 26° C. in the dark for 16 h before being transferred onto medium for callus induction.
Two different chemical selection strategies were used to enrich for regenerated wheat plants with an integrated linear double-stranded donor molecule. […] The purpose of the second chemical selection strategy was to allow the frequency of precise (on-target) versus random (off-target) donor integration to be quantified, as well as the frequency of perfect and imperfect integration at the endogenous AHAS loci. […]

[2] = tested on: endogenous AHAS genes (three homoeologous copies); test: transient assay of ZFN-mediated HR-directed AHAS editing in biolistically transfected scutella of immature zygotic embryos; format: cell-based, Triticum aestivum; details: for Editing Frequency (ppm): HR-directed, scutella
Source text: Donor DNA designs were based on a plasmid DNA vector containing 750-bp homology arms (i.e. sequence identical to the endogenous AHAS gene) flanking each side of the target cleavage site for ZFNs 29732 and 29730. A plasmid DNA vector was designed for each of the three wheat sub-genomes: pDAS000132 (FIG. 3), pDAS000133 (FIG. 4) and pDAS000134 (FIG. 5) were designed to the A-, B- and D-genome, respectively (SEQ ID NO:65, SEQ ID NO:66, and SEQ ID NO:67). Each plasmid DNA vector was designed to introduce an S653N ([…]) mutation as a genomic modification conferring tolerance to imidazolinone class herbicides at the target homoeologous copy of the endogenous AHAS gene by ZFN-mediated HR-directed DNA repair. Two additional plasmid DNA constructs were also designed to target the D-genome. The first plasmid DNA, pDAS000135 (SEQ ID NO: 68) (FIG. 6), was identical to pDAS000134 except that it contained two additional (synonymous) single nucleotide point mutations, one each located at 15-bp upstream and downstream of the S653N mutation.
Seedlings of the donor wheat line were grown in an environment controlled growth room maintained at 18/16° C. (day/night) and a 16/8 hour (day/night) photoperiod with lighting provided at […]. Wheat spikes were collected at 12-14 days post-anthesis and were surface sterilized by soaking for 1 min in 70% (v/v) ethanol. The spikes were threshed and the immature seeds were sterilized for 15 min in 17% (v/v) bleach with gentle shaking, followed by rinsing at least three times with sterile distilled water. The embryos were aseptically isolated from the immature seeds under a dissecting microscope. The embryonic axis was removed using a sharp scalpel and discarded. The scutella were placed into a 9 cm PETRI™ dish containing osmotic MS (E3 maltose) medium, with the uncut scutellum oriented upwards. A total of 20 scutella were plated onto each 9 cm PETRI™ dish. The prepared embryos were pre-cultured in the dark at 26° C. for a minimum of 4 h before transfection using biolistics-mediated DNA delivery.
Gold particles for biolistic-mediated DNA delivery were prepared by adding 40 mg of 0.6 micron colloidal gold particles (BioRad) to 1 mL of sterile water in a 1.5 mL microtube. The gold particles were resuspended by vortexing for 5 min. To prepare sufficient material for 10 bombardments, a 50 μL aliquot of the gold particle suspension was transferred to a 1.5 mL microtube containing 5 μg of DNA resuspended in 5 μL of sterile water. Following thorough mixing by vortexing, 50 μL of 2.5 M CaCl2 and 20 μL of 0.1 M spermidine were added to the microtube, with thorough mixing after the addition of each reagent. The DNA-coated gold particles were pelleted by centrifugation for 1 min at maximum speed in a bench top microfuge. The supernatant was removed and 1 mL of 100% ethanol was added to wash and resuspend the gold particles. The gold particles were pelleted by centrifugation, as described above, and the supernatant discarded. The DNA-coated gold particles were resuspended in 110 μL of 100% ethanol and maintained on ice. Following a brief vortex, 10 μL of the gold particle solution was placed centrally onto a macro-carrier membrane and allowed to air dry.
The PDS-1000/HE PARTICLE GUN DELIVERY SYSTEM™ (BioRad) was used to transfect the scutella of immature zygotic wheat embryos by biolistic-mediated DNA delivery. Delivery of the DNA-coated gold particles was performed using the following settings: gap 2.5 cm, stopping plate aperture 0.8 cm, target distance 6.0 cm, vacuum 91.4-94.8 kPa, vacuum flow rate 5.0 and vent flow rate 4.5. The scutella of immature zygotic wheat embryos were bombarded using a 900 psi rupture disc. Each PETRI™ dish containing 20 scutella was bombarded once. The bombarded scutella were incubated at 26° C. in the dark for 16 h before being transferred onto medium for callus induction. The scutella were cultured on callus induction medium in the dark at 26° C. for 7 d. […]

| Molecule | wheat plants recovered ([1]; BASTA selection) | wheat plants with AHAS herbicide tolerance phenotype recovered ([1]; IMAZAMOX selection) | Editing Frequency (ppm) ([2]; wheat sub-genome A, ZFN 29732-2A-29730, donor-to-ZFN molar ratio 5:1) | Editing Frequency (ppm) ([2]; wheat sub-genome A, ZFN 29732-2A-29730, donor-to-ZFN molar ratio 10:1) | Editing Frequency (ppm) ([2]; wheat sub-genome A, ZFN n/a (donor only), average of three biological replicates) | Editing Frequency (ppm) ([2]; wheat sub-genome B, ZFN 29732-2A-29730, ratio 5:1) | Editing Frequency (ppm) ([2]; wheat sub-genome B, ZFN 29732-2A-29730, ratio 10:1) | Editing Frequency (ppm) ([2]; wheat sub-genome B, ZFN n/a (donor only)) | Editing Frequency (ppm) ([2]; wheat sub-genome D, ZFN 29732-2A-29730, ratio 5:1) | Editing Frequency (ppm) ([2]; wheat sub-genome D, ZFN 29732-2A-29730, ratio 10:1) | Editing Frequency (ppm) ([2]; wheat sub-genome D, ZFN n/a (donor only)) | molecular evidence for ZFN-mediated HR-directed editing in all three homoeologous copies of endogenous AHAS ([2]; co-transfected with pDAB109350, scutella (pDAS000131 and pDAS000134 also SEC protoplasts)) |
| --- | --- | --- | --- | --- | --- | --- | --- | --- | --- | --- | --- | --- |
| pDAS000433: donor molecule backbone for first transgene stack, S653N; SEQ ID NO:71 (nucleic acid, pDAS000433) DNA: CCACTCTTGCCCTACACGACACTGAAGACCTTATGATTCCAAACGGCGGCGCCTTCAAGGACATGATCATGGAGGGTGATGGCAGGACCTCGTACTGAAATTTCGACCTACAAGACCTACAAGTGTGACATGCGCAATCAGCATGGTGCCCGCGTGTTGTATCAACTACTAGGGGTTCAACTGTGAACCATGCGTTTTCTAGTTTGCTTGTTTCATTCATATAAGCTTGTGTTACTTAGTTCCGAACCCTGTAGCTTTGTAGTCTATGCTCTCTTTTGTAGGGATGTGCTGTCATAAGATATCATGCAAGTTTCTTGTCCTACATATCAATAATAAGTACTTCCATGGAATAATTCTCAGTTCTGTTTTGAATTTTGCATCTTCTCACAAACAGTGTGCTGGTTCCTTTCTGTTCGCTGACGCCCTCCTCGACTCCATCCCCATGGTCGCCATCACGGGCCAGGTCCCCCGCCGCATGATCGGTAGCGACTTCGTGGGCGAGGAAAGCCTTTCGTCCAAGGTGGTCCCTCCTCGCAATCTTGTTGGATGGTGAATATTATAAAAGCCTGCCCTTCTCGCGGGTAAGACTCCCGCCCATCCAGGATGAGGATGACCAGCCTTTTGCAGTTTATCCACTAGGGACAGGATTGCATCCTGCCGAAACCCTGCCAAGCTTGAGGTAGCCTCCAATTTGACGGTGCCGCCAGCGACGCCGTCTGGAACTGTCCTTTTTGAGGACCACTCCGTTTGTCTAGAGGTACCTGGAGATCATGACATTAAGGATGACCAGTTCGTAAAGGTCCTGCGGTGTCTATTGCTTTTCATAGGTTAATAAGTGTTTGCTAGACTGTGGTGAAAGGCCAAGACTCCCGCCCATCTCTCTATGCCCGGGACAAGTGCCACCCCACAGTGGGGCAGGATGAGGATGACCAAAGACTCCCGCCCATCTCACTAGGGACAGGATTGGCCTTTTGCAGTTTATCTCTATGCCCGGGACAAGTGTATCCGAAGTAAATAAAACCATCGGACTCTCGTATAAGACTGTCGACTCGACCGGCCGACGCATAGGTTCATTTGAAGCTGCTATTCTATTTAAATTGAAACTCGGACGGTAGCAGTGTGGTATGAGGTCTTCAGCACACTCGGTAACTCCAGTCAC | 1,652 | No wheat plants | – | – | – | – | – | – | – | – | – | – |
| pDAS000132: plasmid donor DNA, 750-bp homology arms, A-genome, introduces S653N mutation; SEQ ID NO:65 (nucleic acid, pDAS000132) DNA: TGCAAGCAGGTCCAAGATTGTGCACATTGACATTGACCCAGCTGAGATTGGCAAGAACAAGCAGCCACATGTCTCCATTTGTGCAGATGTTAAGCTTGCTTTACAGGGGTTGAATGCTCTATTAAATGGGAGCAAAGCACAACAGGGTCTGGATTTTGGTCCATGGCACAAGGAGTTGGATCAGCAGAAGAGGGAGTTTCCTCTAGGATTCAAGACTTTTGGCGAGGCCATCCCGCCGCAATATGCTATCCAGGTACTGGATGAGCTGACAAAAGGGGAGGCGATCATTGCTACTGGTGTTGGGCAGCACCAGATGTGGGCGGCTCAGTATTACACTTACAAGCGGCCACGGCAGTGGCTGTCTTCGTCTGGTTGGGGGCAATGGGATTTGGGTTACCAGCTGCAGCTGGCGCTGCTGTGGCCAACCCAGGTGTTACAGTTGTTGACATTGATGGAGATGGTAGTTTCCTCATGAACATTCAGGAGTTGGCATTGATCCGTATTGAGAACCTCCCTGTGAAGGTGATGATATTGAACAACCAGCATCTGGGAATGGTGGTGCAATGGGAGGATAGGTTTTACAAGGCCAATCGGGCGCACACATACCTTGGCAACCCAGAAAATGAGAGTGAGATATATCCAGATTTTGTGACGATTGCTAAAGGATTCAACGTTCCGGCAGTTCGTGTGACGAAGAAGAGCGAAGTCACTGCAGCAATCAAGAAGATGCTTGAGACCCCAGGGCCATACTTGTTGGATATCATCGTCCCGCATCAGGAGCACGTGCTGCCTATGATCCCAAATGGTGGTGCTTTCAAGGACATGATCATGGAGGGTGATGGCAGGACCTCGTACTGAAATTTCGACCTACAAGACCTACAAGTGTGACATGCGCAATCAGCATGGTGCCCGCGTGTTGTATCAACTACTAGGGGTTCAACTGTGAACCATGCGTTTTCTAGTTTGCTTGTTTCATTCATATAAGCTTGTGTTACTTAGTTCCGAACCCTGTAGCTTTGTAGTCTATGCTCTCTTTTGTAGGGATGTGCTGTCATAAGATATCATGCAAGTTTCTTGTCCTACATATCAATAATAAGTACTTCCATGGAATAATTCTCAGTTCTGTTTTGAATTTTGCATCTTCTCACAAACAGTGTGCTGGTTCCTTTCTGTTACTTTACATGTCTGCCGTGTCCGGTTATGACATAATGACCGATGGAGGGTGGTCAGCAGGTTTTAGACGGGGAGTTGAAACTTTTTTTTGGGGGGAAGAAATCTGAATACAGTTGGGAGGAAAGATAAAAGCATATACCTTGATTAATTTATTGAGCCCAATATCCAGCCTAATTTATCAAGCAATAGGCAGTGTAGGGTGTTGGC | – | – | 2,353 ppm | 1,800 ppm | 5 | 42 | 30 | 0 | 110 | 61 | 0 | strong molecular evidence |
